Results taken from patent US20180237490A1 (HANMI PHARM, published 2018).
Positions of bridges follow the written chain, without caps; N, C: chain ends. Non-standard residues stand in square brackets, D forms with d. No end group written: not given here. *: point of attachment. Acetyl(2-(4-imidazolyl)) = O=C(Cc1c[nH]cn1)*; Aib = CC(C)(N)C(=O)O

biological target: human GLP-1 receptor (human) (UniProt P43220); test: cell-based or functional assay
Sequence (P43220 24-463): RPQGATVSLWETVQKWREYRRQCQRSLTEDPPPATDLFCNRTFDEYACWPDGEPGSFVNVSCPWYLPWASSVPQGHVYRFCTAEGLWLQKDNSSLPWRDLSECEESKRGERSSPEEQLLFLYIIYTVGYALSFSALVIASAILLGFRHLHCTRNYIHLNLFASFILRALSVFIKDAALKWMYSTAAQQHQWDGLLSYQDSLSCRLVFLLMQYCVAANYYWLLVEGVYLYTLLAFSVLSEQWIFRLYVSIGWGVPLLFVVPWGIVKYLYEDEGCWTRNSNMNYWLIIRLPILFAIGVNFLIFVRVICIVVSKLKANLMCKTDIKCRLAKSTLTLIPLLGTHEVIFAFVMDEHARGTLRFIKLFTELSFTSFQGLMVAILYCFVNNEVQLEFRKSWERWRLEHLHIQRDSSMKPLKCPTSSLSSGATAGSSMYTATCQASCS

First: [Acetyl(2-(4-imidazolyl))]SQGTFTSDYSRYLDEEAVRLFIEWIRNGGPSSGAPPPSK [oxyntomodulin analog (SEQ ID NO: 18)]
Second: [Acetyl(2-(4-imidazolyl))]SQGTFTSDYSKYLDERRAQDFVAWLKNTGPSSGAPPPS [oxyntomodulin analog (SEQ ID NO: 3)]
The EC50 (nM), cAMP, CHO/GLP-1R of the first is lower: 96.3 nM for the first, over 1000 nM for the second.

[Acetyl(2-(4-imidazolyl))]SQGTFTSDLSRQLEEEAVRLFIEWLMNK [oxyntomodulin analog (SEQ ID NO: 8)] gave an EC50 (nM), cAMP, CHO/GLP-1R of 420 nM.

biological target: human glucagon receptor (human) (UniProt P47871); test: cell-based or functional assay
Sequence (P47871 26-477): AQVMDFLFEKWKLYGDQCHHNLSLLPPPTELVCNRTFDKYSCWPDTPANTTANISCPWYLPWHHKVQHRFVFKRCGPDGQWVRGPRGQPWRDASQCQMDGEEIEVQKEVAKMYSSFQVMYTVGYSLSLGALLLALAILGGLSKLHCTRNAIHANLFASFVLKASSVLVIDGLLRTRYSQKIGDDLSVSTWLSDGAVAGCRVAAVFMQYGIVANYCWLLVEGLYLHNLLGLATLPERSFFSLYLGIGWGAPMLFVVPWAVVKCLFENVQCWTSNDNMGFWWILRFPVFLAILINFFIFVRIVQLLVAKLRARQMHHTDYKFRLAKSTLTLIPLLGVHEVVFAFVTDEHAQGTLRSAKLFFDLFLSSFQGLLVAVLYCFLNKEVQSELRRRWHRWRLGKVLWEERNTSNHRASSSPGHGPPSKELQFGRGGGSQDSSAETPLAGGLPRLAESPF

Going from [Acetyl(2-(4-imidazolyl))]SQGTFTSDYSRYLDEEAVRLFIEWIRNGGPSSGAPPPSK [oxyntomodulin analog (SEQ ID NO: 18)] to [Acetyl(2-(4-imidazolyl))]SQGTFTSDYSKYLDERRAQDFVAWLKNTGPSSGAPPPS [oxyntomodulin analog (SEQ ID NO: 3)], the EC50 (nM), cAMP, CHO/GCGR falls from over 1000 nM to 638 nM.

In the case of [Acetyl(2-(4-imidazolyl))]SQGTFTSDLSRQLEEEAVRLFIEWLMNK [oxyntomodulin analog (SEQ ID NO: 8)], the EC50 (nM), cAMP, CHO/GCGR is reported as over 1000 nM.

biological target: human glucagon receptor (human, UniProt P47871 26-477); test: cell-based or functional assay
Sequence (P47871 26-477): as the sequence (P47871 26-477) above

Going from H[Aib]QGTFTSDYSKYLDEKRAKEFVQWLMNTC [oxyntomodulin analog (SEQ ID NO: 24)] to H[Aib]QGTFTSDYSKYLDEKRAKEFVQWLMNTC (bridge 16-20) [oxyntomodulin analog (SEQ ID NO: 25)], the “EC50 (nM), cAMP, CHO/GCGR” value falls from 6.95 nM to 1.3 nM (5.3-fold).

In the case of Y[Aib]QGTFTSDYSKYLDEKRAKEFVQWLMNTC (bridge 16-20) [oxyntomodulin analog (SEQ ID NO: 34)], the “EC50 (nM), cAMP, CHO/GCGR” value is reported as 1.04 nM.
